Where “and” joins values, the source holds several entries; their conditions need not be identical. Equal entries are not always repeated.

Results on seven molecules are retold here after patent US20230303660A1 (published 2023).

To fix the notation:
B1: s4-1BBL-TNC (ligand)
chain: GSGSNWSHPQFEKGGSGGHHHHHHGGSGGTRACGCAAAPDIKDLLSRLEELEGLVSSLREQGSLDLRQGMFAQLVAQNVLLIDGPLSWYSDPGLAGVSLTGGLSYKEDTKELVVAKAGVYYVFFQLELRRVVAGEGSGSVSLALHLQPLRSAAGAAALALTVDLPPASSEARNSAFGFQGRLLHLSAGQRLGVHLHTEARARHAWQLTQGATVLGLFRVTPEIPAGLPSPRSE
notes: HEK293T supernatant; The entry may include the CD5 leader; also called comparison 3
B2: s4-1BBL (ligand)
chain: GSGSNWSHPQFEKGGSGGHHHHHHGGSGGGSLDLRQGMFAQLVAQNVLLIDGPLSWYSDPGLAGVSLTGGLSYKEDTKELVVAKAGVYYVFFQLELRRVVAGEGSGSVSLALHLQPLRSAAGAAALALTVDLPPASSEARNSAFGFQGRLLHLSAGQRLGVHLHTEARARHAWQLTQGATVLGLFRVTPEIPAGLPSPRSE
notes: HEK293T supernatant; also called soluble 4-1BBL
B3: s4-1BBL-TriXVIII^LL (ligand)
chain: GSGSNWSHPQFEKGGSGGHHHHHHGGSGGTRSGAGGSGGSSGSDGASGSGVRLWATRQAMLGQVHEVPEGWLIFVAEQEELYVRVQNGFRKVQLEARTPLPRGTDNEGSLDLRQGMFAQLVAQNVLLIDGPLSWYSDPGLAGVSLTGGLSYKEDTKELVVAKAGVYYVFFQLELRRVVAGEGSGSVSLALHLQPLRSAAGAAALALTVDLPPASSEARNSAFGFQGRLLHLSAGQRLGVHLHTEARARHAWQLTQGATVLGLFRVTPEIPAGLPSPRSE
B4: murine (m)s4-1BBL-TriXVIII (ligand)
chain: GVRLWATRQAMLGQVHEVPEGWLIFVAEQEELYVRVQNGFRKVQLEARTPLPRGTDNEGSRTEPRPALTITTSPNLGTRENNADQVTPVSHIGCPNTTQQGSPVFAKLLAKNQASLCNTTLNWHSQDGAGSSYLSQGLRYEEDKKELVVDSPGLYYVFLELKLSPTFTNTGHKVQGWVSLVLQAKPQVDDFDNLALTVELFPCSMENKLVDRSWSQLLLLKAGHRLSVGLRAYLHGAQDAYRDWELSYPNTTSFGLFLVKPDNPWE
B5: Triple-s4-1BBL (ligand)
chain: GSGSNWSHPQFEKGGSGGHHHHHHGGSGGGSLDLRQGMFAQLVAQNVLLIDGPLSWYSDPGLAGVSLTGGLSYKEDTKELVVAKAGVYYVFFQLELRRVVAGEGSGSVSLALHLQPLRSAAGAAALALTVDLPPASSEARNSAFGFQGRLLHLSAGQRLGVHLHTEARARHAWQLTQGATVLGLFRVTPEIPAGLPSPRSEGGGGSGGGGSGGGGSLDLRQGMFAQLVAQNVLLIDGPLSWYSDPGLAGVSLTGGLSYKEDTKELVVAKAGVYYVFFQLELRRVVAGEGSGSVSLALHLQPLRSAAGAAALALTVDLPPASSEARNSAFGFQGRLLHLSAGQRLGVHLHTEARARHAWQLTQGATVLGLFRVTPEIPAGLPSPRSEGGGGSGGGGSGGGGSLDLRQGMFAQLVAQNVLLIDGPLSWYSDPGLAGVSLTGGLSYKEDTKELVVAKAGVYYVFFQLELRRVVAGEGSGSVSLALHLQPLRSAAGAAALALTVDLPPASSEARNSAFGFQGRLLHLSAGQRLGVHLHTEARARHAWQLTQGATVLGLFRVTPEIPAGLPSPRSE
notes: HEK293T supernatant; Single chain carrying three ectodomains; The entry may include the leader
B6: s4-1BBL-TriXVIII (ligand)
chain: GSGSNWSHPQFEKGGSGGHHHHHHGGSGGGVRLWATRQAMLGQVHEVPEGWLIFVAEQEELYVRVQNGFRKVQLEARTPLPRGTDNEGSLDLRQGMFAQLVAQNVLLIDGPLSWYSDPGLAGVSLTGGLSYKEDTKELVVAKAGVYYVFFQLELRRVVAGEGSGSVSLALHLQPLRSAAGAAALALTVDLPPASSEARNSAFGFQGRLLHLSAGQRLGVHLHTEARARHAWQLTQGATVLGLFRVTPEIPAGLPSPRSE
notes: HEK293T supernatant; The entry may include the CD5 leader; also called 54-1BBL-TriXVIII; human s4-1BBL-TriXVIII
B7: s4-1BBLsh-TriXVIII (ligand)
chain: GSGSNWSHPQFEKGGSGGHHHHHHGGSGGGVRLWATRQAMLGQVHEVPEGWLIFVAEQEELYVRVQNGFRKVQLEARTPLPRGTDNEGSGMFAQLVAQNVLLIDGPLSWYSDPGLAGVSLTGGLSYKEDTKELVVAKAGVYYVFFQLELRRVVAGEGSGSVSLALHLQPLRSAAGAAALALTVDLPPASSEARNSAFGFQGRLLHLSAGQRLGVHLHTEARARHAWQLTQGATVLGLFRVTP
notes: HEK293T supernatant, used without purification; The entry may include the CD5 leader; also called 54-1BBLsh-TriXVIII; s4-1BBL-short (sh) minimal polypeptide

Chain of murine 4-1BB (P20334 24-256): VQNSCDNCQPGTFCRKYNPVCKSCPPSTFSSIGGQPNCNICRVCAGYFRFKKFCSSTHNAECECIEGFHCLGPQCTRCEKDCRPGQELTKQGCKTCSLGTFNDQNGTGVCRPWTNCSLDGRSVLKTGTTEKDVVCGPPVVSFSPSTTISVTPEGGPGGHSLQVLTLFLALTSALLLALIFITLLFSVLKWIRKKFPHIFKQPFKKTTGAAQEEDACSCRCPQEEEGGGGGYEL

The first assay deals with T1, human 4-1BB (human, UniProt Q07011 24-255). Description: cell-based or functional assay.
T1 sequence (Q07011 24-255): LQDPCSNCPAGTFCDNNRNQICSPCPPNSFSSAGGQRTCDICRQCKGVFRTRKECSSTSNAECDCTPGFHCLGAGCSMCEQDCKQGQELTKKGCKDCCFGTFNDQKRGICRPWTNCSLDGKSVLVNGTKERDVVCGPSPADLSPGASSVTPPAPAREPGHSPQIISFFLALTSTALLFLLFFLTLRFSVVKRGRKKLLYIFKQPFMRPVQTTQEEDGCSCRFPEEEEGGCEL
Consider B1, for which the “NF-κB activation measured through eCFP expression (fold induction)” value (“NF-κB activation … (fold induction)” below) was ~50 % of effect lost at a dilution of 1:8.

Regarding B2, the “NF-κB activation … (fold induction)” value was 8 final supernatant dilution (1:x).

With B3, the “NF-κB activation … (fold induction)” value was 64 final supernatant dilution (1:x) and 8 supernatant dilution (1:x).

Another assay has as its target murine 4-1BB (murine, UniProt P20334 24-256). Kind of assay: cell-based or functional assay.
For B4, the “NF-κB activation … (fold induction)” value was 15600 final supernatant dilution (1:x) and 500 supernatant dilution (1/x).

The target in the next assay is T1, human 4-1BB. Description: flow cytometry; dilution series of HEK293T supernatant on Jurkat TPR cells expressing human 4-1BB. From the text:
For testing the resulting supernatants, a Triple parameter reporter cell line (TPR) based on the human Jurkat JE6-1 T cell line was used (Jutz et al., 2016). This cell line harbors fluorescent reporter polypeptides to concomitantly assess the activity of three transcription factors, which play major roles during T cell activation: NF-κB::eCFP; NFAT::eGFP and AP-1::mCherry. The TPR reporter cells were transduced to stably express human 4-1BB. For the binding assays, 1×10⁵ 4-1 BB expressing cells in a volume of 10 μl were incubated with 50 μl of the supernatants containing the products according to Table 1. […] After an incubation time of 30 min at 4° C., the samples are washed in FACS-Buffer (1×PBS, 0.5% FCS, 0.005% NaN₃) and stained with a biotinylated Strep-tag II mAb (GenScript, NJ) via adding 5 μl of a 1:150 dilution to each sample and incubation for 20 min on 4° C. Afterwards, samples were washed again and incubated for another 20 min on 4° C. upon adding 5 μl of a 1:200 dilution of Streptavidin-PE (BD Pharmingen, San Diego, CA) to each sample. At last, samples were washed again and subsequently measured via flow cytometry, which was performed on a FACSCalibur flow cytometer (Becton Dickinson Immunocytometry System, San Jose, CA), using the CellQuest software. Data was analyzed with FlowJo (version 10.0.7, Tree Star, Ashland, OR) and Graphpad Prism (version 6, GraphPad Software, Inc., La Jolla, CA).
Turning to B1, the “supernatant dilution at which binding is still detectable” value (“supernatant dilution” for short) was 128 supernatant dilution (1:x).

Consider B2, for which the “supernatant dilution” value was 1600 supernatant dilution (1:x).

Consider B5, for which the “supernatant dilution” value was 4096 supernatant dilution (1:x).

For the molecule B6, the “supernatant dilution” value was 4096 supernatant dilution (1:x).

As to B7, the “supernatant dilution” value was 2080 supernatant dilution (1:x).
